Columns and labels:
[1] = biological target: VH1VL1-CD8ATD-CD137CSD-CD3zSSD fusion
[2] = biological target: VH2VL1-CD8ATD-CD137CSD-CD3zSSD fusion
[3] = biological target: VH3VL1-CD8ATD-CD137CSD-CD3zSSD fusion
[4] = biological target: VL1VH3-CD8ATD-CD137CSD-CD3zSSD fusion
Sequence of VL1VH3-CD8ATD-CD137CSD-CD3zSSD fusion (chain, as listed by the source): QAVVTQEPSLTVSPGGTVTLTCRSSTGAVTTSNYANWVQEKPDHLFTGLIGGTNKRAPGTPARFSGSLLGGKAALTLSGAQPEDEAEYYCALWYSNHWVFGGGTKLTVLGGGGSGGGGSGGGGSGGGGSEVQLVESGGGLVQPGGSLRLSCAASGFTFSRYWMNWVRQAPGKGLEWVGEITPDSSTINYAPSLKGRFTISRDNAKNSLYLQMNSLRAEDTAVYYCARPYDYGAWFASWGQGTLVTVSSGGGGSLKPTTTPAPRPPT

Sequence of VH3VL1-CD8ATD-CD137CSD-CD3zSSD fusion (chain, as listed by the source): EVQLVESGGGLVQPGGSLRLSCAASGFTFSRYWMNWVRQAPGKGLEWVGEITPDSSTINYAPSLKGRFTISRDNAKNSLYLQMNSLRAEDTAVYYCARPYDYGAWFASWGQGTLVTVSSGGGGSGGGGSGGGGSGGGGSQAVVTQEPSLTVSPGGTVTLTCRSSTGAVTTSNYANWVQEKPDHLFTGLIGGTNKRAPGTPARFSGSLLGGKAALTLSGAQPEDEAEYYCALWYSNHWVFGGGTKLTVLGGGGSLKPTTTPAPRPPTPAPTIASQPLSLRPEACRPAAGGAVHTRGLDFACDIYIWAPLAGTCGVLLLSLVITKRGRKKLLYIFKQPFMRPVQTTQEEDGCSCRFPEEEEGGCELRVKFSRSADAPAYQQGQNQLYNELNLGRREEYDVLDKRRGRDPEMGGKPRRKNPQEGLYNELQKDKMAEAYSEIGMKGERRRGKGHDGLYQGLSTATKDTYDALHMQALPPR
Sequence of VH1VL1-CD8ATD-CD137CSD-CD3zSSD fusion (chain, as listed by the source): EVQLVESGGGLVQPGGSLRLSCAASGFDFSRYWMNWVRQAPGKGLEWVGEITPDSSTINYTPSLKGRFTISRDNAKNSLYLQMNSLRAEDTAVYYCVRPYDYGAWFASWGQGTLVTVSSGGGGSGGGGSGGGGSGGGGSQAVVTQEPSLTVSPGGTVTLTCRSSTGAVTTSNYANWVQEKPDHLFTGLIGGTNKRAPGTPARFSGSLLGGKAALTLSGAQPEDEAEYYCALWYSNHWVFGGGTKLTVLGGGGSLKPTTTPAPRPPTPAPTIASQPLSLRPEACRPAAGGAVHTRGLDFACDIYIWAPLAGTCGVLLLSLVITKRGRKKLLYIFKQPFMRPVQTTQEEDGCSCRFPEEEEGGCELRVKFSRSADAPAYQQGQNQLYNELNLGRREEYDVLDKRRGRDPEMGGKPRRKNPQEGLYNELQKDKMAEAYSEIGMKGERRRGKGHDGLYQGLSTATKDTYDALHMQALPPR
Sequence of VH2VL1-CD8ATD-CD137CSD-CD3zSSD fusion (chain, as listed by the source): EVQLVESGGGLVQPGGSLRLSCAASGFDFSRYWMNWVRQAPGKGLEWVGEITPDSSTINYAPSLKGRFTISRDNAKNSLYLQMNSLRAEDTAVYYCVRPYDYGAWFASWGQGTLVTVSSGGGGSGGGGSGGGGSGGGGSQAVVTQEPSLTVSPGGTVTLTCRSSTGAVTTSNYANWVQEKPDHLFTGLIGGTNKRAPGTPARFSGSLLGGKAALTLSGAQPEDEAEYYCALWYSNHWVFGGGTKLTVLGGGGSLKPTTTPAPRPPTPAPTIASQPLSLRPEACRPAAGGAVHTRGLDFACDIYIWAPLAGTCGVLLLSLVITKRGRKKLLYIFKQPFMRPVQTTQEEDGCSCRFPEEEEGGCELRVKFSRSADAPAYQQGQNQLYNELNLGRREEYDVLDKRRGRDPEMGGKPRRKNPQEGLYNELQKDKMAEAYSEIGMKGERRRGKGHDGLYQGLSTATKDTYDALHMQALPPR

For “anti-CD20 (GA101) D246A P329G IgG1 (antibody)”, the EC50 of NFAT-luciferase activation of anti-P329G CAR Jurkat cells, WSUDLCL2 target cells (5:1); VH1 x VL1 [1] was 8.14 pM, the EC50 of NFAT-luciferase activation of anti-P329G CAR Jurkat cells, WSUDLCL2 target cells (5:1); table row VH2 x VL1 [2] was 10.4 pM and the EC50 of NFAT-luciferase activation of anti-P329G CAR Jurkat cells, WSUDLCL2 target cells (5:1); VH3 x VL1 [3] was 5.82 pM. For the same substance, the EC50 of NFAT-luciferase activation of anti-P329G CAR Jurkat cells, WSUDLCL2 target cells (5:1); VL1 x VH 3 [4] was 6.19 pM.
